System: peptide library, one residue held at a place counted from the Y acceptor
Test: relative phosphorylation of the sub-library (ratio to the mean residue at this position); higher = residue favoured
Outline: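 Within 384-well plates, purified recombinant kinases phosphorylated biotinylated Tyr-centred peptide library mixtures over 90 min using 50 μM ATP spiked with γ-32P-ATP; each mixture fixed one residue at one position from −5 to +5. Streptavidin membrane capture, rinsing, phosphorimaging and ImageQuant gave the intensities. These were normalized per position to the sum of the 18 randomized residues (16 for the Ser/Thr-free library) and multiplied by that number.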

Chain of PTK2, construct: Full length, human (Q05397 whole entry, looked up): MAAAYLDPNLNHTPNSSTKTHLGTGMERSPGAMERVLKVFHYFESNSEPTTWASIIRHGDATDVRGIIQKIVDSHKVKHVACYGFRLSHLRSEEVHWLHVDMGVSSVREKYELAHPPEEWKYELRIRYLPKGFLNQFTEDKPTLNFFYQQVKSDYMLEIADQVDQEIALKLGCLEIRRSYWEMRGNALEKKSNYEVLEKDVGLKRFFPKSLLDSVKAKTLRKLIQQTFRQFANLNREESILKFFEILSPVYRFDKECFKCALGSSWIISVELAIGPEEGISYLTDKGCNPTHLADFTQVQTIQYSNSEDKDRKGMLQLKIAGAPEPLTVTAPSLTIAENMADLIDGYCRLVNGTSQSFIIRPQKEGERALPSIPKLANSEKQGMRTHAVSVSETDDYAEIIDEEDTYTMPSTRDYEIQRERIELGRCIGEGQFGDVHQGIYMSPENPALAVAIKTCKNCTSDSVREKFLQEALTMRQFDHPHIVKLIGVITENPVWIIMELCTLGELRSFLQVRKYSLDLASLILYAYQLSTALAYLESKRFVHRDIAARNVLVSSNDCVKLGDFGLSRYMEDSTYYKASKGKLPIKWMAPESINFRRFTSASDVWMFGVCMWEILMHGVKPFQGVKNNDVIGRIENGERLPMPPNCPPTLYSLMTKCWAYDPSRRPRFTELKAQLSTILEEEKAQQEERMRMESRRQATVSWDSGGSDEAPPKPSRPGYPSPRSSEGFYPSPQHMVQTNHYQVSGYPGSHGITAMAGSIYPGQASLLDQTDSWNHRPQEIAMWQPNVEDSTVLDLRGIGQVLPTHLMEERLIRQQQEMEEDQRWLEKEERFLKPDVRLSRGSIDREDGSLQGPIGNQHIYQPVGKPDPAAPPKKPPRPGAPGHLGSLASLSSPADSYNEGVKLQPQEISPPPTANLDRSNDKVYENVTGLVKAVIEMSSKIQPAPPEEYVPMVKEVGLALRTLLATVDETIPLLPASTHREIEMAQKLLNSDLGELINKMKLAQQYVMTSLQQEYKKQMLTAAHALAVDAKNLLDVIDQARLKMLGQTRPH
Chain of PDHK4, construct: Full length, human (Q16654 whole entry, looked up): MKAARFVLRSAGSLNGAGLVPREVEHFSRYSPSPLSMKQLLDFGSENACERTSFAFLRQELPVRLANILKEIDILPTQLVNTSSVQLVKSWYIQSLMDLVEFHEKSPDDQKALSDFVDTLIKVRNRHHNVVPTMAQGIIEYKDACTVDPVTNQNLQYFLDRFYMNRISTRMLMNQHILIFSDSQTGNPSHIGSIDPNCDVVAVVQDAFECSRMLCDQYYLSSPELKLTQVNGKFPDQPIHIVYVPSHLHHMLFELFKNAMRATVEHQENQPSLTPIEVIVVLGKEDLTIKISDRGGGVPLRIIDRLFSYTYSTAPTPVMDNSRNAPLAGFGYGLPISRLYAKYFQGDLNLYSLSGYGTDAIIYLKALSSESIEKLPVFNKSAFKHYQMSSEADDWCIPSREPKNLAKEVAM

PDHK4, construct: Full length, human (from UniProt Q16654)
relative phosphorylation
Settings	at +1	at +2	at +3	at +4	at +5	at -1	at -2	at -3	at -4	at -5
A fixed	0.747	0.56	0.742	0.698	0.589	0.81	0.808	0.801	0.946	0.872
D fixed	1.19	1.6	1.29	1.41	1.34	1.15	1.15	1.25	1.27	1.31
E fixed	1.04	1.2	1.49	1.26	1.33	1.02	1.11	0.838	1.11	1.17
F fixed	0.751	0.966	0.945	0.996	1.01	0.723	0.874	0.873	0.94	0.934
G fixed	1.01	0.938	1.02	0.95	1.05	1.17	1.24	1.26	1.19	1.1
H fixed	0.998	1.01	0.995	1.11	1.03	1.05	0.911	0.777	0.983	1.11
I fixed	0.568	0.546	0.652	0.669	0.722	0.654	0.654	0.568	0.739	0.773
K fixed	1.04	0.95	0.777	0.863	0.777	1.14	0.926	1.25	0.945	1.02
L fixed	0.798	0.809	0.798	1.1	1.03	0.823	1.1	0.99	0.827	0.827
M fixed	0.695	0.776	0.891	0.92	0.968	0.75	0.796	0.712	0.822	0.809
N fixed	1.49	1.3	1.16	1.15	1.06	1.34	1.21	1.14	1.01	1.07
P fixed	1.15	1.1	1.09	1.06	0.957	1.27	1.22	1.74	1.1	1.11
Q fixed	1.39	1.42	1.19	1.26	1.21	1.32	1.11	1.24	1.02	1.03
R fixed	1.17	0.976	0.885	0.812	0.798	1.11	1.09	0.868	1.06	0.994
V fixed	0.572	0.565	0.604	0.644	0.703	0.539	0.652	0.645	0.669	0.681
W fixed	1.39	1.28	1.47	1.1	1.44	1.13	1.15	1.05	1.37	1.18
pThr fixed	1.31	1.69	1.35	1.51	1.1	1.43	1.19	1.42	1.32	1.43
pTyr fixed	1.1	1.18	0.974	1.03	1.43	1.09	1.09	0.858	1.18	1.28

PINK1, construct: Full length, Tribolium castaneum (from UniProt D6WMX4)
relative phosphorylation
Settings	at +1	at +2	at +3	at +4	at +5	at -1	at -2	at -3	at -4	at -5
A fixed	0.901	0.835	0.881	0.879	0.893	0.907	0.869	0.893	0.948	0.916
D fixed	0.823	0.834	0.831	0.914	0.84	0.931	0.892	0.906	1.05	1.09
E fixed	0.789	0.792	0.875	0.938	0.813	1.22	0.916	0.938	1.42	1.04
F fixed	1.43	1.12	1.08	1.07	1.05	1.17	1.11	0.986	1.1	0.984
G fixed	0.902	0.767	0.78	0.909	0.88	1.15	0.931	0.838	0.884	0.936
H fixed	1.23	1.15	1.07	1.1	1.07	0.97	1.05	1.08	1.01	1.09
I fixed	0.847	0.804	0.852	0.84	0.832	1	0.922	0.781	0.868	0.888
K fixed	0.937	1.59	1.31	1.32	1.31	1	1.13	1.2	1.03	1.18
L fixed	0.737	0.831	0.881	0.882	0.876	0.814	0.889	0.862	0.793	0.82
M fixed	0.762	1.01	0.959	0.869	0.891	0.819	0.824	0.849	0.798	0.85
N fixed	0.936	1	0.91	0.954	1.02	0.948	1.21	0.981	0.871	0.893
P fixed	0.778	0.786	0.909	0.885	0.876	0.911	0.843	0.851	0.828	0.911
Q fixed	0.862	0.989	0.973	0.99	1.02	0.998	0.996	1.09	0.934	0.887
R fixed	1.16	1.71	1.61	1.57	1.68	1.3	1.36	1.82	1.35	1.35
V fixed	0.784	0.805	0.857	0.797	0.816	0.853	0.911	0.819	0.817	0.874
W fixed	2.12	0.972	1.23	1.09	1.15	1	1.14	1.11	1.31	1.29
pThr fixed	0.939	0.843	0.735	0.99	0.826	1.29	0.841	1.06	1.04	1.06
pTyr fixed	1.3	0.83	0.872	1.26	0.978	1.25	0.995	1.2	1.16	1.11

PTK2, construct: Full length, human (from UniProt Q05397)
relative phosphorylation
Settings	at +1	at +2	at +3	at +4	at +5	at -1	at -2	at -3	at -4	at -5
A fixed	1.98	0.732	0.861	0.842	1.02	0.632	1.05	0.673	0.936	0.931
D fixed	1.73	1.7	0.677	0.971	1.21	5.68	1.57	1.78	1.51	1.39
E fixed	1.85	2.34	0.705	1.19	1.23	1.38	1.77	2.18	1.61	1.37
F fixed	0.794	1.18	1.29	0.961	0.944	0.654	0.858	1.06	1.21	1.02
G fixed	1.09	0.625	0.731	1.14	1.21	0.575	1.03	0.851	1.08	1.1
H fixed	0.724	0.825	0.752	1.17	0.86	0.57	0.801	1.42	0.891	0.935
I fixed	0.99	1.13	2.19	0.964	0.811	1.17	0.839	0.757	0.968	1.11
K fixed	0.526	0.574	0.561	0.743	0.656	0.508	0.688	0.702	0.708	0.806
L fixed	0.66	0.909	1.58	0.792	0.933	0.784	0.814	0.801	1.08	1.04
M fixed	0.833	0.912	1.03	1.04	0.9	0.637	0.76	1.16	0.859	1.04
N fixed	0.699	1.04	0.613	0.759	0.852	0.882	1.42	1.11	0.917	0.976
P fixed	0.506	0.653	1.5	1.07	1.63	0.553	1.25	0.665	0.895	0.934
Q fixed	0.914	0.677	0.631	0.824	0.841	0.578	0.946	0.85	1	0.909
R fixed	0.538	0.612	0.59	0.758	0.678	0.512	0.689	0.78	0.725	0.868
S fixed	1.1	0.804	0.713	0.849	1.07	0.577	1.02	0.742	0.785	0.802
T fixed	0.879	0.815	0.795	0.815	1.21	0.76	0.765	0.702	0.724	0.808
V fixed	1.27	0.965	1.61	0.933	0.868	0.964	0.882	0.719	0.831	0.884
W fixed	0.911	1.52	1.18	2.19	1.07	0.579	0.833	1.05	1.27	1.07
pThr fixed	5.07	4.12	0.915	1.1	1.89	7.51	2.09	1.88	1.74	1.39
pTyr fixed	3.81	12.2	1.18	1.35	1.58	1.35	1.33	1.76	2.01	1.55

From the supplement of paper PMC11136658
